The values below come from PMC4989314, “Regulatory (pan-)genome of an obligate intracellular pathogen in the PVC superphylum”.

Sequences and labels used below:
T1: His6-Euo (Waddlia chondrophila, UniProt D6YSI2 1-142)
T1 sequence: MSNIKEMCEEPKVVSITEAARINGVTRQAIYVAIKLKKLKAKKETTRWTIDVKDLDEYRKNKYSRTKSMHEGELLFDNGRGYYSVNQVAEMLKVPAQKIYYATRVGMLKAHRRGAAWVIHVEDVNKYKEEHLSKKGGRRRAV

T2: His6-Euo (Waddlia chondrophila) (UniProt D6YSI2)
T2 sequence: T1 sequence

T3: His6-HrcA (Waddlia chondrophila) (UniProt D6YSD6)
T3 sequence: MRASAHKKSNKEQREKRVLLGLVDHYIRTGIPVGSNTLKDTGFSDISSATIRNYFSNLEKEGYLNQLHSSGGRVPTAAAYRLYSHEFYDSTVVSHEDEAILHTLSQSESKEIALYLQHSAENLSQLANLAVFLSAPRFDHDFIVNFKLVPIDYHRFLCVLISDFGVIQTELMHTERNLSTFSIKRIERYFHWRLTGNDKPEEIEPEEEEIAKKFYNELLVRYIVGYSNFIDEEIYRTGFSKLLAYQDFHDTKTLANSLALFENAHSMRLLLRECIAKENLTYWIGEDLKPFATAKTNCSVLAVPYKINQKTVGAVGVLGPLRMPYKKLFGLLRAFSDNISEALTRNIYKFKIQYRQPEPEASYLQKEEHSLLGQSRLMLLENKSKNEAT

B1: PftsY_mut 1+2 (dsDNA)
DNA 1: TTTGTCGACTTATCTTACACAACTGAGACTTCCAATGGTACTACCCTTCTTCCCATCTAGTTTTGAAAAAGTTAAAAATGCCCTCTCCAAAACGCGTTCCGCTCTGGGAGAAAAATTGCGTTCTCTTTTCAGTGGAAAAATCGATGAAGAAACACTGGACTGCAGTTT
DNA 2: AAACTGCAGTCCAGTGTTTCTTCATCGATTTTTCCACTGAAAAGAGAACGCAATTTTTCTCCCAGAGCGGAACGCGTTTTGGAGAGGGCATTTTTAACTTTTTCAAAACTAGATGGGAAGAAGGGTAGTACCATTGGAAGTCTCAGTTGTGTAAGATAAGTCGACAAA
B2: PqueF_mut 1+2+3+4 (dsDNA)
DNA 1: AAACTGCAGGGCCAATCTTTCATTGATTGTCCATTCATGGTCGGCAAGGGTTGAGAGAAGGGCTTTATTTTAGGGTTCGTTCTTTGATAGGGTTGCAGGCATGGTGCAAGTGCAGGATTCAGTTTTAGGAAAAAAGACGTTTTATAAGGATCGGTACGAGTCGACAAA
DNA 2: TTTGTCGACTCGTACCGATCCTTATAAAACGTCTTTTTTCCTAAAACTGAATCCTGCACTTGCACCATGCCTGCAACCCTATCAAAGAACGAACCCTAAAATAAAGCCCTTCTCTCAACCCTTGCCGACCATGAATGGACAATCAATGAAAGATTGGCCCTGCAGTTT

One series has as its target T1, His6-Euo. Description: EMSA; EMSA with Cy5 PCR probes or 80 ng unlabelled DNA (GelRed); buffer, salt, pH and temperature not in material. The settings on record: protein: recombinant; tags: His6; chain copies: 2; label: Cy5; blunt.
On to B1, for which the binding result was “no binding”.

As to B2, the binding result is reported as “no binding”.

For the next series, the target named is T2, His6-Euo (Waddlia chondrophila). Description: EMSA. The settings on record: EMSA with Cy5 PCR probes or 80 ng unlabelled DNA (GelRed); buffer, salt, pH and temperature not in material.
As to “CACCGGAAGATGTGGTGCTGATTGCGGGCAGAGGGCATGAACCTTATCAAATATTTGCGCATCAAACAATAGAATTTAAAGATCGCGAAGTTGTAGAGGATATATTACATTCATGAGGAGAAGCAATCGCAGGGAATTCTTAAAAAATAG (double strand) [PamiA]”, the binding result is “binds”.

Turning to “TCCAGTGTTTCTTCATCGATTTTTCCACTGAAAAGAGAACGCAATTTTTCTCCCAGAGCGGAACGCGTTTTGGAGAGGGCATTTTTAACTTTTTCAAAACTAGATTTTAAGAATTTTAGTACCATTGGAAGTCTCAGTTGTGTAAGATAA (double strand) [PftsY (frag0)]”, the binding result was “binds”.

Regarding “TCGTACCGATCCTTATAAAACGTCTTTTTTCCTAAAACTGAATCCTGCACTTGCACCATGCCTGCAATTTTATCAAAGAACGAATTTTAAAATAAAGAAATTCTCTCAAAAATTGCCGACCATGAATGGACAATCAATGAAAGATTGGCC (double strand) [PqueF (frag0)]”, the binding entry is given as “binds”.

On to “TGTAATGCCATGGGATCGCGTTTAAGCGAGATCATATAGTAGCTCCTAAAAAAATATTCCTTGCAAGACAAACAAATTTTTTCGTGTAAAGTTTGCATTTTCAAAATCGGACCAGATGAAAATGCGCAAACTCTCTTTTTTACTCCTCC (double strand) [Prhs9]”, for which the binding result is reported as “binds”.

Take “TTCGCGGGCAGCGTTGATCCCGCCAAAACCGCCTCCAATAATAATGACTTTAGGTTTGCTCATATCTTGTTTATATAATTAAAAATGATTTTAAAAATCCAGATTAAAATTGTTCGACGAGTTGATGGATTTCTGAAAAGGAAAGGGGGT (double strand) [Pndh]”: the binding entry is “binds”.

“TTGTCATGAAAAACTCTATGAATCAAATAAGGAGGGGCATTTACATGGCGCTCAGTAAAACTATCAACGAAATGAGGAGCCTTTTTACAGGTCTAATCGATGACCTTCAAAAGGCTGAAGCAGGTAACAAAGCTGCCTCTCAGCGTGTAA (double strand) [PhctA]”: the binding entry is “no binding”.

Another series has as its target T3, His6-HrcA (Waddlia chondrophila). Description: EMSA. The settings on record: EMSA with Cy5 PCR probes or 80 ng unlabelled DNA (GelRed); buffer, salt, pH and temperature not in material.
As to “ATTTATAAAGAAACTTCTCTTGGAGGGCTTGCAGTAAACGTGCCTGAATGCTAAAAGATTTGGTATATGGAGCTAATAAAGGATCAAATGCAAAGATACGAAGAACGGGAACTCGTCGAATTCGAAAATCAAGGGATAAAAATTTTTGGA (double strand) [Pwcw_1080]”, the binding entry is listed as “binds”.

With “CATAACTTTTTGGGAATTTCAAGATCGACTCGGGATCGTGCAGTAAAACATTAGTATCTAATACAAAGGTCTTTTTCTTCACATACGCTCCTTTTTAATAGCACTTATAGCTTGAGAGTGCTAAATCAATTGACTTAAATAGGTTTATTT (double strand) [PphoH]”, the binding result is reported as “binds”.

Take “CCTATATCGTATGGCGGCTAAAAGAGCTTGACCGGGCGAAAAGGGAGCAATTTAAGCAAAAGCGGGAACGGTATTTATTGTACCGCTAAAAACTGGCACTTAAATTCATCAACTGCTAATATGTTGACGTAAATCCATTGAACTCTTAAA (double strand) [PgroES3]”: the binding result was “binds”.

For the molecule “CTAGCTAGCTAAACATCTGCTTAAGTGATAACACCTCTAATGCTATCAATATCCTTCGATATTTTGCAATAGAAAATTAGCACTTTGGCAATTAAAGTGCTAATAACTTATCCAGCTCCTCGACAAGATTGCTGAATTTTTTGATGGCAG (double strand) [PgroES1]”, the binding result was “binds”.

As for “GCTGCTCAATTGGTCTATAAAAAAGGACTTGACTGGCGCCCTTCTATTGTCGACATTTTACCCGTCATTCTGGAAAAACAAATCTAGCAAATAGCTTTGTTGAGTGCTAATTCCTTCTTGACCTCTTTTAAACCCCTTGTTATAATGAAA (double strand) [PhrcA (HrcA EMSA)]”, the binding result is on record as “binds”.
